{"source": "patent US20200283478A1", "binders": {"B1": {"name": "SEQ ID NO 337 (peptide)", "peptide": "TAFTSWEEYLDWVGSGCMEAWQCSLA"}, "B2": {"name": "SEQ ID NO 378 (peptide)", "peptide": "SGVCSDHYIGGKEVRC"}, "B3": {"name": "SEQ ID NO 385 (peptide)", "peptide": "SGDFIPWNLVRIGLLR"}}, "biological_target": "PCSK9Δhelix (human)", "sequence (prodomain, as listed by the source mutant limits assumed, chain 1 of 2)": "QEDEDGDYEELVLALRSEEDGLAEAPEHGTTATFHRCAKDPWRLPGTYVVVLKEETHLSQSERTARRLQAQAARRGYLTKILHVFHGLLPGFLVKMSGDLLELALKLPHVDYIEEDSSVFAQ", "sequence (chain, as listed by the source mutant limits assumed, chain 2 of 2)": "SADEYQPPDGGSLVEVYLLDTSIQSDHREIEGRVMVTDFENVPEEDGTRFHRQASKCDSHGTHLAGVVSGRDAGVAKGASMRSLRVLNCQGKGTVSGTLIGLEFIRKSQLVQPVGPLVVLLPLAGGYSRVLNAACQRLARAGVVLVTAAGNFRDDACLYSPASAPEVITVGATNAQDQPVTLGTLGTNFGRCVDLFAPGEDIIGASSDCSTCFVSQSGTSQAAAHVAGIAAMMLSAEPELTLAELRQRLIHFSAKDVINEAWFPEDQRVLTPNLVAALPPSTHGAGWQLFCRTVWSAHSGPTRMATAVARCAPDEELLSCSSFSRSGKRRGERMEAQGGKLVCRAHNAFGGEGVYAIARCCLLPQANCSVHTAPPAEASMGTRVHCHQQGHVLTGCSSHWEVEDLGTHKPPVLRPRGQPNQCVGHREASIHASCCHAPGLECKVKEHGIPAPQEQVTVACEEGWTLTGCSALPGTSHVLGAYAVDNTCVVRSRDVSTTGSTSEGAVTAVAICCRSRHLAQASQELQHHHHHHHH", "assay": "phage spot ELISA", "data": [{"binder": "B1", "values": [{"measurement": "ELISA", "value": 2.76}, {"measurement": "s/n ratio", "value": 1.49}]}, {"binder": "B2", "values": [{"measurement": "ELISA", "value": 1.21}, {"measurement": "s/n", "value": 1.85}]}, {"binder": "B3", "values": [{"measurement": "ELISA", "value": 0.657}, {"measurement": "s/n ratio", "value": 5.01}]}]}
